Laboratory results reported in the Human Domainome abundance scans (Beltran et al. 2025).
± gives the uncertainty stated by the source.

B1: Transcription elongation factor A N-terminal and central domain-containing protein, residues 30 to 77; numbered along this chain, Q8N8B7 (parent)
chain: LTELETIYVTKEHLQETDVVRAVYRVLKNCPSVALKKKAKCLLSKWKA

Variants of: B1
Assay: abundance fitness (aPCA) (normalised: wild type 0, dead -1); higher = more abundant; growth selection in yeast, the domain comes from the species named
Settings: Homo sapiens

Row | Variant | abundance fitness
1 | LTELETIYVTKEHLQETDVVRAVYRVLKNCPSVALKKTAKCLLSKWKA [K38T] | -0.11 ± 0.24
2 | LTELETIYVTKEHLQETDVVRAVYRVLKNCPSVALKKNAKCLLSKWKA [K38N] | 0.201 ± 0.41
3 | LTELETIYVRKEHLQETDVVRAVYRVLKNCPSVALKKKAKCLLSKWKA [T10R] | -0.041 ± 0.069
4 | LTELETIYVKKEHLQETDVVRAVYRVLKNCPSVALKKKAKCLLSKWKA [T10K] | -0.198 ± 0.098
5 | LTELERIYVTKEHLQETDVVRAVYRVLKNCPSVALKKKAKCLLSKWKA [T6R] | -0.074 ± 0.068
6 | LTELEGIYVTKEHLQETDVVRAVYRVLKNCPSVALKKKAKCLLSKWKA [T6G] | -0.024 ± 0.063
7 | LTELEEIYVTKEHLQETDVVRAVYRVLKNCPSVALKKKAKCLLSKWKA [T6E] | 0.126 ± 0.1
8 | LTELETIYVTKEHLQETDVVRAVYRVLKNCPSVALKKKAKCSLSKWKA [L42S] | -0.77 ± 0.12
9 | LTELETIYVTKEHLQETDVVRAVYRVLKNCPSVALKKKAKCILSKWKA [L42I] | -0.283 ± 0.18
10 | LTELETIYVTKEHLQETDVVRAVYRVLKNCPSVALKKKAKCVLSKWKA [L42V] | -0.354 ± 0.086
11 | LTELETIYVTKEHLQETDVVRAVYRVLKNCPSVALKKKAKCELSKWKA [L42E] | -0.993 ± 0.2
12 | LTELETIYVTKEQLQETDVVRAVYRVLKNCPSVALKKKAKCLLSKWKA [H13Q] | -0.078 ± 0.086
13 | LTELETIYVTKEHLQETDVVRAVYLVLKNCPSVALKKKAKCLLSKWKA [R25L] | -0.71 ± 0.096
14 | LTELETIYVTKEHLQETDVVRAVYRVLKNCPSVALKKKMKCLLSKWKA [A39M] | -0.016 ± 0.12
15 | LTELETIYVTKEHLQETDVVRAVYRVLKNCPSVALKKKYKCLLSKWKA [A39Y] | -0.452 ± 0.17
16 | LTELETIYVTKEHLQETDVVRAVYRVLKNCPSVALKKKHKCLLSKWKA [A39H] | -0.553 ± 0.27
17 | LTELETIYVTKEHLQETDVVRAVYRVLKNCPSVALKKKRKCLLSKWKA [A39R] | -0.968 ± 0.093
18 | LTELETIYVTKEHLQETDVVRAVYRVLKNCPSVALKKKDKCLLSKWKA [A39D] | -0.826 ± 0.19
19 | LTELETIYVTKEHLQETDVVRAVYRVLKNCPSVALKKKAKMLLSKWKA [C41M] | -0.232 ± 0.18
20 | LTELETIYVTKEHLQITDVVRAVYRVLKNCPSVALKKKAKCLLSKWKA [E16I] | -0.28 ± 0.14
21 | LTELETIYVTKEHLQETDVVRAVYRVLKKCPSVALKKKAKCLLSKWKA [N29K] | -0.029 ± 0.11
22 | LTELETIYVTKEHLQETDVVRAVYRVLKNCPNVALKKKAKCLLSKWKA [S32N] | -0.017 ± 0.13
23 | LTELETIYVTKEHHQETDVVRAVYRVLKNCPSVALKKKAKCLLSKWKA [L14H] | 0.294 ± 0.1
24 | LTELETIYVTKEHCQETDVVRAVYRVLKNCPSVALKKKAKCLLSKWKA [L14C] | 0.061 ± 0.097
25 | LTELETIYVTKEHNQETDVVRAVYRVLKNCPSVALKKKAKCLLSKWKA [L14N] | 0.235 ± 0.12
26 | LTELETIYVTKEHTQETDVVRAVYRVLKNCPSVALKKKAKCLLSKWKA [L14T] | 0.328 ± 0.087
27 | LTELETIYVTKEHQQETDVVRAVYRVLKNCPSVALKKKAKCLLSKWKA [L14Q] | 0.247 ± 0.1

Row | Variant | abundance fitness
28 | LTELETIYVTKEHLQETDVVRAVYRVLKNNPSVALKKKAKCLLSKWKA [C30N] | -0.274 ± 0.14
29 | LTELETIYVTKEHLQETDVVPAVYRVLKNCPSVALKKKAKCLLSKWKA [R21P] | -0.514 ± 0.15
30 | LTELETIYVTKEHLQETDVVGAVYRVLKNCPSVALKKKAKCLLSKWKA [R21G] | -0.042 ± 0.076
31 | LTELETIYVTGEHLQETDVVRAVYRVLKNCPSVALKKKAKCLLSKWKA [K11G] | -0.022 ± 0.066
32 | LTELETILVTKEHLQETDVVRAVYRVLKNCPSVALKKKAKCLLSKWKA [Y8L] | -0.233 ± 0.17
33 | TTELETIYVTKEHLQETDVVRAVYRVLKNCPSVALKKKAKCLLSKWKA [L1T] | 0.251 ± 0.3
34 | MTELETIYVTKEHLQETDVVRAVYRVLKNCPSVALKKKAKCLLSKWKA [L1M] | 0.235 ± 0.39
35 | LTELETIYVTKEHLQETDVVRAVNRVLKNCPSVALKKKAKCLLSKWKA [Y24N] | -0.362 ± 0.15
36 | LTELETIYVTKEHLQETDVVRAVRRVLKNCPSVALKKKAKCLLSKWKA [Y24R] | 0.277 ± 0.066
37 | LTELETIYVTKEHLQETDVVRAVARVLKNCPSVALKKKAKCLLSKWKA [Y24A] | 0.019 ± 0.078
38 | LTELETCYVTKEHLQETDVVRAVYRVLKNCPSVALKKKAKCLLSKWKA [I7C] | -0.541 ± 0.13
39 | LTELETAYVTKEHLQETDVVRAVYRVLKNCPSVALKKKAKCLLSKWKA [I7A] | 0.131 ± 0.076
40 | LTELETIYVTKEHLQETDVARAVYRVLKNCPSVALKKKAKCLLSKWKA [V20A] | 0.015 ± 0.1
41 | LTELETIYVTKEHLQETDVHRAVYRVLKNCPSVALKKKAKCLLSKWKA [V20H] | -0.491 ± 0.24
42 | LTELETIYVTKEHLQETDVFRAVYRVLKNCPSVALKKKAKCLLSKWKA [V20F] | 0.071 ± 0.21
43 | LTELETIYVTKEHLQETDVQRAVYRVLKNCPSVALKKKAKCLLSKWKA [V20Q] | -0.633 ± 0.23
44 | LTELETIYVTKKHLQETDVVRAVYRVLKNCPSVALKKKAKCLLSKWKA [E12K] | 0.138 ± 0.14
45 | LTELETIYVTKMHLQETDVVRAVYRVLKNCPSVALKKKAKCLLSKWKA [E12M] | -0.538 ± 0.12
46 | LTELETIYVTKSHLQETDVVRAVYRVLKNCPSVALKKKAKCLLSKWKA [E12S] | -0.168 ± 0.091
47 | LTELETIYVTKEHLQETDVVRAVYRVLKNCPSVALKKKAKCLLSKWLA [K47L] | -0.508 ± 0.13
48 | LTELETIYVTKEHLQETDVVRAVYRVLKNCPSVALKKKAKCLLSKWMA [K47M] | -0.252 ± 0.14
49 | LTELETIYVTKEHLQEHDVVRAVYRVLKNCPSVALKKKAKCLLSKWKA [T17H] | -0.37 ± 0.32
50 | LTELETIYVTKEHLQEIDVVRAVYRVLKNCPSVALKKKAKCLLSKWKA [T17I] | -0.654 ± 0.15
51 | LTELETIYVTKEHLQETTVVRAVYRVLKNCPSVALKKKAKCLLSKWKA [D18T] | 0.158 ± 0.1
52 | LTELETIYVTKEHLQETAVVRAVYRVLKNCPSVALKKKAKCLLSKWKA [D18A] | 0.098 ± 0.1
53 | LTELETIYVTKEHLQETKVVRAVYRVLKNCPSVALKKKAKCLLSKWKA [D18K] | -0.136 ± 0.11
54 | LTSLETIYVTKEHLQETDVVRAVYRVLKNCPSVALKKKAKCLLSKWKA [E3S] | -0.149 ± 0.11
